Measured values reported in patent US20040127419A1 (Amgen, published 2004).

Target: T1, mature human glial cell line-derived neurotrophic factor (hGDNF), CHO cell-expressed (human, UniProt P39905 78-211, glycosylated (N-linked sugar, about 4.5 kDa))
T1 construct: The native protein is a disulfide-bonded homodimer (44 kDa on non-reducing gels); also called mature GDNF; 22 kDa band
T1 chain: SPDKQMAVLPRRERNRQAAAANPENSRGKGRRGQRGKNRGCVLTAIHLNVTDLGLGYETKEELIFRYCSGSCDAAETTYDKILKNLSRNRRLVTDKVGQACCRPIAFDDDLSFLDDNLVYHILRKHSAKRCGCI
Experiment: purification from CHO conditioned medium, Western blot and N-terminal sequencing; disulfide-bonded dimer
Description: The following process describes the purification of CHO-expressed GDNF and a CHO-derived clipped GDNF homodimer, from one liter of conditioned media. Because of significant protease action in the CHO medium, clipping the chain at residue 31, the procedure may include the use of a protease inhibitor during purification.
Serum free conditioned media was made 20 mM 2-[N-Morpholino] ethane sulfonate (MES), pH 6.0, by adding one fiftieth volume of 1 M MES, pH 6.0. Twenty five milliliters of SP Sepharose Big Bead resin (Pharmacia), equilibrated with 20 mM MES, pH 6.0, was added and stirred at 4° C. for one hour. The resin was collected by allowing it to settle and decanting off the conditioned media. The decanted media was filtered through a fritted disc filter to recover any unsettled resin. […] Protein was eluted with a 300 ml gradient from A buffer to 1.0 M NaCl, 20 mM MES, pH 6.0 (B buffer), at a flow rate of 0.2 column volumes/minute with absorbance monitored at 280 nm. […] The presence of GDNF in the fractions was detected by Western blotting analysis. […]
Fractions containing GDNF from Step 2 were resolublized in one milliliter of 0.15 M NaCl, 10 mM Tris, pH 8.0, and applied to a 0.75×7.5 cm TSK-Gel 5WP high performance S column (Toso Haas). […] One minute fractions were collected with absorbance measured at 280 nm. […]

B1: [Arg32-Ile134] truncated GDNF protein, CHO cell-derived (ligand)
chain: RGQRGKNRGCVLTAIHLNVTDLGLGYETKEELIFRYCSGSCDAAETTYDKILKNLSRNRRLVTDKVGQACCRPIAFDDDLSFLDDNLVYHILRKHSAKRCGCI
modifications: glycosylated (N-linked and O-linked sugars)
notes: It forms a disulfide-bonded homodimer (36 kDa) or a heterodimer with mature GDNF (40 kDa); A later purification also found a [Lys37-Ile134] form; also called clipped GDNF; 18 kDa band
B1: binds.
